± gives the uncertainty stated by the source.
Test: amyloid nucleation score (Sup35N fusion, yeast selection) (log enrichment); library NNK2; higher = more nucleation; inactive = no reads after selection
In short: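 Peptides of 20 random codons, each fused to Sup35N, were expressed in psi-negative yeast. Cells were induced with 100 μM copper sulfate for 24 hours and grown 7 days at 30°C on medium lacking adenine and uracil, and plasmid inserts before and after selection were Illumina-sequenced. Nucleation scores are DiMSum log enrichments of output over input reads, centred on the mode score of non-aggregating sequences, and sequences under 100 input reads were excluded.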

Substance | amyloid nucleation score
WELKAHVDV | 0.737 ± 0.54
WEYTG | 0.242 ± 0.74
WFDWLVYSGLDHGRFIEVLK | -0.432 ± 0.74
WFDYGR | inactive
WFGFGESAHLYRLREEDFHD | -0.206 ± 0.79
WFISGISKLMRHFALKYASM | 2.5 ± 0.15
WFNFVPYHADYGNFL | 0.053 ± 1.1
WFPALEYKCAQGQDRQQRPV | 0.351 ± 0.74
WFTYQVAYVWYGRNFDTSPA | 7.961 ± 0.067
WGETVLYSDY | -1.01 ± 1
WGHFQEDARFTSYGVGSVLG | -0.263 ± 1.1
WGLFPLQCHLVYRLLLSFHK | inactive
WGSMYRYFVDGSWFVVDISP | -0.26 ± 0.27
WGVCSQGYNVRIRVVARQKF | inactive
WHDIQALTSMDVGRYLGDAI | -0.696 ± 0.26
WHGKVGRTAWCLGMLFYDVR | 1.02 ± 0.2
WHGRWSTNRRRPPNKMCRLV | 1.06 ± 0.28
WHKFGNNRANEGRYIMHLMH | -0.282 ± 0.48
WHRVFKGLS | 0.658 ± 0.26
WHSHMYNWWEQ | 1.09 ± 0.28
WICFYDYWQGFSHNDCREME | -0.97 ± 0.36
WIDLNRRRREAL | -0.125 ± 0.34
WIIIFSKFV | -0.695 ± 0.79
WINVGCVCLMVMHILPI | 5.4 ± 0.073
WISIRSTNRRKLRHRSYATV | 0.56 ± 0.56

Substance | amyloid nucleation score
WIVVSSIDSFFCVSSSPQFR | inactive
WKGSEELRSGMAYVDGTGGE | 1.32 ± 0.39
WKIDWTNVNPFVRPVGTTNG | 0.917 ± 0.33
WKSLTGYIRLIFRNFWTSHD | inactive
WLGTRWRRGWGRLLKREGIL | 1.79 ± 0.13
WLLPTTSLLSSQPAQAFRDH | -0.363 ± 0.49
WLPMGRAGLCYYGEFDNSCW | inactive
WLPNRRNVPYAVESVCS | 0.971 ± 0.33
WLTYRCSVYYFYVEYWKSVY | 0.256 ± 0.74
WLVGHKLKYA | 0.113 ± 0.22
WLVIPWRCSNDRHIWLWELQ | 1.55 ± 0.53
WLYNMTRLHIPFYARNWLNS | 0.352 ± 0.37
WNKWSGLVLYTLGKLSY | -0.648 ± 0.39
WNLCGCAFDQLYKGVRSVNG | 3.84 ± 0.066
WNSVIFCR | -0.704 ± 0.37
WNTLKVAGSVGGTAVDQVAV | 1.33 ± 0.34
WNWRVNDGVPGMTYVKAYSS | -0.672 ± 0.42
WPGRRRYAMCVMTKRRGGLE | 0.422 ± 0.29
WPVCTSIYMVGWWSVHTYHG | 0.705 ± 0.8
WQVYQFSCRAEGEDL | 2.48 ± 0.12
WRDTC | -0.086 ± 0.49
WRELKSQVDWRLDILSGSYR | 0.971 ± 0.26
WRFWLPAKWISRGSFIVYWI | -0.717 ± 0.32
WRGLGVLYVSCVDSRVSSI | -1.73 ± 0.75
WRKCKLFFTLYHLHTVELWI | -0.826 ± 0.49

Substance | amyloid nucleation score
WRLNEDHNRYDLIPGVRGLG | 0.519 ± 0.56
WRMREWKWVEYCRHSVKDAL | 1.54 ± 0.31
WRNCYVYRTVLR | 2.36 ± 0.07
WRQSVQ | 1.12 ± 0.33
WRSYDMYSSWSIYVMAMTIS | -1.11 ± 0.53
WRVFSYYHISDRF | -0.19 ± 1.1
WSEHQGQPNRERWWSAAGEG | 0.984 ± 0.32
WSGLFVKKNVVFRVRNGVT | -0.089 ± 1.1
WSHVYSV | -0.124 ± 0.76
WSYGLLWPSVKLIPACPPAS | 0.244 ± 0.42
WSYGSNLPWLDKPNWHHETW | 1.2 ± 0.47
WTFEFLIRVLEWRSVMFFAG | inactive
WTKATPH | 0.12 ± 0.29
WTLTGHVRNLKLQVCMSVY | 0.789 ± 0.6
WVFKCVSNKERNYISCACSM | 4.79 ± 0.063
WVKENI | -0.234 ± 0.65
WVNYFEGLMIPVSARN | -1.16 ± 0.76
WVSGLPHNYNSSFSTAINFS | 0.907 ± 0.3
WWKQWRYTGYLLLSHLSNRS | -0.087 ± 0.42
WWLMWS | 0.691 ± 0.53
WWQGI | -0.168 ± 1.1
WWSSDS | 1.73 ± 0.078
WWVPCSLYWYSAEGPGLARA | 0.007 ± 0.31
WWYRLLWDKSCL | -1.06 ± 0.49
WYAHGLISVCFVCAGLESLG | -0.251 ± 0.76

Substance | amyloid nucleation score
WYERVWLAWSR | 0.66 ± 0.57
WYNILLHNSAAEYLTY | -0.296 ± 0.34
WYSIIREEAALSYCSSHYKN | 2.49 ± 0.15
WYSYRL | -0.11 ± 0.46
YAFKRECWCHYHHHCVQMFW | 0.49 ± 0.33
YAFQW | 0.152 ± 0.77
YAGTH | -1.72 ± 0.48
YAHRTSTA | 0.342 ± 0.62
YAPRCNPNRNLLNMT | 4.47 ± 0.058
YATKFN | 0.058 ± 0.79
YCFSVYKGVGIGKKCGYLSS | inactive
YCGKTIQCSRRAPTAEDLGM | 2.76 ± 0.12
YCGLFKGYVYRL | -1.43 ± 0.55
YCKGSS | -0.46 ± 1
YCKRLKQAMPHY | -0.337 ± 0.63
YCLVTRLHR | 0.185 ± 0.8
YCMASLSSLNLVRHWDDESS | -1.01 ± 1.1
YCRHGGNRASL | 0.783 ± 0.53
YCTNFYVEAGAIGS | -0.682 ± 0.42
YCTPCLW | 0.452 ± 0.66
YCTSDG | 0.559 ± 0.8
YCVTTVGARCLVKFHHLDSG | 2.11 ± 0.15
YCYEPLTC | 0.508 ± 0.49
YDEKMRVHDKYKTQPLERGR | 4.37 ± 0.1
YDLLGHKAVFEGERVNW | 0.003 ± 0.4

Substance | amyloid nucleation score
YEDSGRRKLLNGP | -0.381 ± 1.1
YFIAASYCDLTYLKTIDWTG | 2.76 ± 0.067
YFKMSFCSFWL | 1.91 ± 0.091
YFMTKETLHC | -1.64 ± 0.54
YFNSSVLILVVWLLY | inactive
YFRDRSFKKIILLPNWFMNT | inactive
YFRSCDKCGAYEANHEFKTT | inactive
YFRVFFFLMSIYTDKN | inactive
YFRYMLW | 4.16 ± 0.1
YFSFFVSKVTGGWSCHVESA | -0.004 ± 0.34
YFWTFTSWQTTGRCHSP | 0.521 ± 0.17
YGCLNYSRWRTSAGMDTNNG | -0.794 ± 0.63
YGDGGDIC | -0.612 ± 0.35
YGEELE | inactive
YGFLCRL | inactive
YGKGDLGRCSLDTSTTLSDW | 0.252 ± 0.65
YGLDRIFVSGSMNATMIKHN | inactive
YGLPYEVLFNHSHTSNRAYS | -0.532 ± 0.43
YGLWVYMNWLVSLRSLLTRI | inactive
YGPYSLSSF | -0.105 ± 1.1
YGQAMWASIFMIYRLPKTLR | -1.13 ± 0.28
YGQMVLRPFDTFVARQ | -1.05 ± 0.48
YGRSTHPGSRSF | -1.25 ± 0.63
YGWRSRYVPCPAGRRCVMSQ | 0.53 ± 0.2
YHITSSLWVDDIHVLLNMGP | 0.328 ± 0.42

Substance | amyloid nucleation score
YHNCNQHSWYRMRCFG | -0.417 ± 1.1
YHPTLVLGYQLTLLFMAFL | 0.613 ± 0.74
YHRSCFWDYLISDGLKQACH | -1.51 ± 0.78
YICMLLDKPRFLSRSSRSLV | inactive
YIELMGHWVGTSRKCVSDRS | -0.243 ± 1.1
YIGCNNYEGKNKCVIFLSFS | 6.079 ± 0.05
YIGQVGYRCSAVGQSYSRPG | 1.87 ± 0.47
YIRIYRVTMRFNCINVAPWG | 6.928 ± 0.048
YITFLVWFQNFGYTGHD | 7.162 ± 0.062
YIVACSWYSGLLGLVGYRRK | 7.884 ± 0.036
YKLYTFCKSRMHVPAYGFSY | -1.96 ± 1.1
YKRCYIKIEWFQMCFNVVTR | inactive
YKVLSISLIVDTFARLYYAL | -0.921 ± 0.54
YLCAFVRWWYR | -0.029 ± 1.1
YLCPTSGKLCGSSGKTMVTV | -1.18 ± 0.48
YLFSLKQLWF | 5.06 ± 0.078
YLGRHDYKSVGGSFIPRQSK | -0.661 ± 1.1
YLGTF | 0.187 ± 0.56
YLIIKCDKRCVEDFDALLE | 4.4 ± 0.071
YLIISMRFISSTQYRFFSVH | 0.498 ± 0.19
YLPFMWCCMIWWAGGVCRL | -0.143 ± 0.76
YLSTFVGTVHDSHTCRFCWN | 3.79 ± 0.13
YLSTGNNMFLNVQDSQGA | 1.36 ± 0.13
YLTSINLRVGGSWLCNNGRM | 1.96 ± 0.14
YLVELNV | 0.344 ± 0.56

Substance | amyloid nucleation score
YLVNNAEMVNMELMISVSGA | -0.337 ± 0.38
YMERIYRWYSQCNRCQVRLW | -0.644 ± 0.54
YMLTKYRYS | 0.734 ± 0.81
YMSARVMFGGEPCCCGSGGE | 1.74 ± 0.27
YMSATVRCIYSRLY | 3.05 ± 0.13
YMSGGVRKGPIAKALNFVRS | -0.854 ± 0.56
YMYDVRICPFDNWVYRRNEC | -0.107 ± 0.74
YMYFRVFDS | 0.525 ± 0.34
YNESVHANVYVLLILKGLES | 6.621 ± 0.048
YNFGEFACYHH | 3.81 ± 0.099
YNFRSSLRNGYKEVRGVQYG | 5.221 ± 0.043
YNGMAHGCHVGASSRRLE | 0.117 ± 0.32
YNGPLHYDRNDSSVKQSVFI | inactive
YNIWL | 2.49 ± 0.12
YNKSSYE | -1.47 ± 1.1
YNQFNFFTG | 6.913 ± 0.045
YNRGMQLIAVVL | 0.725 ± 0.39
YNSSCCSERSYLLSVFRISR | 0.178 ± 0.17
YNSYVVRMGTI | -0.417 ± 1.1
YNVMHRPGGWDFMYGNWMLG | 4.63 ± 0.063
YNYVPLDFVRPVSDWSLELR | -0.405 ± 0.39
YPEDEFFQHRRWKRILSWDV | inactive
YPITPFQA | -0.872 ± 1.1
YPNLFS | 0.522 ± 0.74
YPTASVTATSHTFILSSNKN | 3.48 ± 0.063

Source: the supplement of paper PMC12042874
